Source: publication PMC6123711, “Conformational signatures in β-arrestin2 reveal natural biased agonism at a G-protein-coupled receptor” (Communications Biology, 2018)

What was measured:
[1] = system: Galr2–β-arrestin2–clathrin complex; test: β-arrestin2–clathrin interactions (NanoBit); assay type: cell-based, human; conditions: for Log(τ/KA), Clathrin:β-arrestin2 / formation of Galr2–β-arrestin2–clathrin complex: data at 5 min after agonist; for Log(τ/KA), Clathrin:β-arrestin2: operational model (Eq. 2); for Log(τ/KA), Clathrin:β-arrestin2 / ΔLog(τ/KA), Clathrin:β-arrestin2: mean ± s.e.m. of three experiments in triplicate; for formation of Galr2–β-arrestin2–clathrin complex: dose–response, normalized to Galanin; for ΔLog(τ/KA), Clathrin:β-arrestin2: normalized to Galanin (reference agonist), in parenthesis
From the text: The interaction between β-arrestin2 and clathrin induced by the activation of Galr2 was examined using the NanoBit technology. We measured real-time association of the protein complex Galr2–β-arrestin2–clathrin. We constructed β-arrestin2 and clathrin subunit A tagged with LgBit or SmBit at the C or N termini and screened eight different plasmid combinations, out of which only one combination (β-arrestin2–LgBit:SmBit–clathrin) responded to ligand stimulation (Fig. 3, Supplementary Fig. 3). Before ligand stimulation, Galr2, β-arrestin2, and clathrin were not in close proximity and so the basal luminescence was very low. […] A time course experiment was initially performed to determine the time at which the maximal increase in luminescence occurred following agonist stimulation. All ligands except for Fmoc-dA4-dQ14 induced different fold increase in luminescence immediately after ligand treatment (Fig. 3b). […] Galanin- and Spexin-induced increases in luminescence were attenuated by pretreatment of cmpd101, a G-protein-coupled receptor kinase 2/3 (GRK2/3) inhibitor, indicating contribution of GRK2/3 in the formation of Galr2–β-arrestin2–clathrin complex (Fig. 3).
The arrows indicate the time when the cells were treated with different ligands. […] The results are expressed as mean ± s.e.m. of three experiments performed in triplicate. Each triplicate was averaged before calculating the s.e.m.
Quantification of bias between each pathway was performed using Galanin as a reference ligand. All incubations for the different signaling assays were performed in serum-free medium to prevent peptide degradation.
One day before transfection, cells were seeded in 96-well plates at a density of 2.5 × 10^4 cells per well. A mixture containing 35 ng β-arrestin construct containing the LgBit or SmBit, 35 ng clathrin subunit A containing one of the two domains of Nluc and 30 ng untagged receptor, and 0.2 μl Lipofectamine 2000 (Invitrogen) was prepared and added to each well. We followed the assay manufacturer’s instructions and tested eight β-arrestin-clathrin plasmid combinations. In only one plasmid combination we were able to observe luminescent signal and it was chosen for further experiments. At 24 h post transfection, medium was aspirated and replaced with 100 μl OPTIMEM at room temperature. After a 10-min incubation, 25 μl substrate (furimazine) was added and the luminescence was monitored once every minute for 10 min. Then, 10 μl ligand was added to each well and the luminescence values were recorded immediately and once every minute for 1 h (Synergy 2 Multi-Mode Microplate Reader BioTek).

[2] = system: Galr2; test: Gαq-dependent Erk1/2 phosphorylation (β-arrestin1/2-knockout HEK293 cells); assay type: cell-based, human; conditions: for ΔLog(τ/KA), Gαq-dependent-pErk1/2: normalized to Galanin (reference agonist), in parenthesis, mean ± s.e.m. of three experiments in triplicate; for Log(τ/KA), Gαq-dependent-pErk1/2: western blot, 5 min stimulation, operational model (Eq. 2), mean ± s.e.m. of three experiments in triplicate (table footnote)
From the text: Galr2 is primarily coupled to the Gαq-protein which activates the phospholipase C/protein kinase C pathway for inositol phosphate production. We measured G-protein activation in HEK293 cells transiently expressing Galr2, using the serum response element-luciferase (SRE-Luc) gene reporter assay[10],[37] and for a more specific monitoring of Gαq-protein activity we also measured total inositol phosphate production. […] However, some differences were observed between SRE-Luc activity and total inositol phosphate production in the rank order of potency of the tested ligands. […] Phosphorylation of extracellular signal-regulated protein kinases 1 and 2 (pErk1/2) is either G-protein or β-arrestin dependent. To distinguish Gαq-protein- and β-arrestin1/2-dependent Erk1/2 signaling, we examined ligand-stimulated Erk1/2 phosphorylation in three different HEK293 cell lines, wild type, Gαq/11-knockout, and β-arrestin1/2-knockout cells. All three ligands induced high levels of Erk1/2 phosphorylation dose-dependently in wild-type HEK293 cells.
Fig. 5 Galr2 agonists display different Gαq-protein-dependent signaling and pErk1/2. The ability of increasing concentrations of agonists to induce a SRE-Luc activity and b total inositol phosphate production. c Representative western blot showing ligand-induced phosphorylation of Erk1/2 from wild-type (HEK293 WT), Gαq/11-, and β-arrestin1/2-knockout HEK293 cells expressing Galr2 (original blots are presented in Supplementary Figure 4). pErk1/2 and total Erk levels were determined at 5 min after stimulation of different concentrations of three ligands. Western blot band intensities corresponding to each concentration were quantified using Image studio ^TM Software. […] Data are the mean ± s.e.m. values of two independent experiments
pErk1/2 was measured using western blot assay. HEK293 Gαq/11 and β-arrestin1/2-knockout cells were a kind gift from Professor Asuka Inoue, Tohoku University. The cells were seeded into 6-well plates at a density of 6 × 10^5 cells per well. The next day, they were transfected using 2 μg/well of plasmid containing human Galr2 cDNA and Lipofectamine 2000, according to the manufacturer’s instructions. Before assay, the cells were washed with phosphate-buffered saline and incubated in serum-free DMEM overnight. Dose–response experiments were performed for each ligand at 37 °C. Stimulation of the cells was terminated after 5 min of agonist stimulation by removing the medium, and the addition of 250 μl cold lysis buffer to each well. Immunoblots of phospho-Erk1/2 were obtained using 8 μg of total protein and p44/42 MAPK Erk1/2 antibody (Cell Signaling Technology Inc, catalog no. 4370 S); horseradish peroxidase-conjugated goat anti-rabbit IgG was used as a secondary antibody (Thermo Fisher Scientific). The proteins were visualized using enhanced chemiluminescence (GE Health Care). Image Studio ^TM Software was used for the pErk1/2 band density analysis.

[3] = system: galanin receptor 3 (Galr3); conditions: cited from earlier work
From the text: (§1) G-protein-coupled receptors (GPCRs) are the largest family of cell surface receptors that communicate extracellular stimuli to the cell interior[1]. Biased ligands are of particular interest because they offer the possibility to design a novel class of therapeutic agents. In some GPCRs, biased ligands that preferentially activate G-protein-dependent signaling have therapeutic potential. […] Most descriptions of biased ag ...

[4] = system: Galr2; conditions: cited from earlier work
From the text: as §1

Molecule | Log(τ/KA), Clathrin:β-arrestin2 [1] | formation of Galr2–β-arrestin2–clathrin complex [1] | ΔLog(τ/KA), Clathrin:β-arrestin2 [1] | ΔLog(τ/KA), Gαq-dependent-pErk1/2 [2] | Log(τ/KA), Gαq-dependent-pErk1/2 [2] | affinity toward Galr3 [3] | affinity toward Galr2 [4] | pathway responsible for agonist-induced Erk1/2 phosphorylation ([2]; from comparison of wild-type, Gαq/11- and β-arrestin1/2-knockout HEK293 cells) | activation of Galr3 [3] | activation of Galr2 [4]
Galanin [reference compound] | 8.00 ± 0.18 | highest response | 0.00 ± 0.20 | 0.00 ± .22 | 6.90 ± 0.22 | low affinity | high affinities | – | – | –
Spexin (peptide, UniProt Q9BT56 27-116, looked up, Spexin, endogenous peptide ligand of Galr2 and Galr3; synthesized by AnyGen) Spexin: APQRLLERRNWTPQAMLYLKGAQGRRFISDQSRRKDLSDRPLPERRSPNPQLLTIPEAATILLASLQKSPEDEEKNFDQTRFLEDSLLNW | 6.22 ± 0.10 | lower potency and efficacy than Galanin | −1.80 ± 0.10 | 0.57 ± 0.22 | 7.47 ± 0.21 | – | – | likely mainly attributable to the G-protein-dependent signaling pathway | activates Galr2 and Galr3 with high affinities | activates Galr2 and Galr3 with high affinities
